Assay results published in the supplement of paper PMC10065799, “High-throughput profiling of sequence recognition by tyrosine kinases and SH2 domains using bacterial peptide display” (eLife, 2023).

How the values were obtained:
Grb2 SH2 = Grb2 SH2 (UniProt P62993); assay: SH2 binding enrichment of the phosphorylated peptide, bacterial display (enrichment ratio); higher = better substrate or ligand; peptides without Tyr show the background
c-Src SH2 = assay: as above
SHP2-C SH2 = assay: as above
EPHB2 = EPHB2 (UniProt P29323); assay: phosphorylation enrichment, bacterial display (enrichment ratio); higher = better substrate or ligand; peptides without Tyr show the background
EPHB1 = EPHB1 (UniProt P54762); assay: as above
Sequence of EPHB1 (P54762 whole entry, looked up): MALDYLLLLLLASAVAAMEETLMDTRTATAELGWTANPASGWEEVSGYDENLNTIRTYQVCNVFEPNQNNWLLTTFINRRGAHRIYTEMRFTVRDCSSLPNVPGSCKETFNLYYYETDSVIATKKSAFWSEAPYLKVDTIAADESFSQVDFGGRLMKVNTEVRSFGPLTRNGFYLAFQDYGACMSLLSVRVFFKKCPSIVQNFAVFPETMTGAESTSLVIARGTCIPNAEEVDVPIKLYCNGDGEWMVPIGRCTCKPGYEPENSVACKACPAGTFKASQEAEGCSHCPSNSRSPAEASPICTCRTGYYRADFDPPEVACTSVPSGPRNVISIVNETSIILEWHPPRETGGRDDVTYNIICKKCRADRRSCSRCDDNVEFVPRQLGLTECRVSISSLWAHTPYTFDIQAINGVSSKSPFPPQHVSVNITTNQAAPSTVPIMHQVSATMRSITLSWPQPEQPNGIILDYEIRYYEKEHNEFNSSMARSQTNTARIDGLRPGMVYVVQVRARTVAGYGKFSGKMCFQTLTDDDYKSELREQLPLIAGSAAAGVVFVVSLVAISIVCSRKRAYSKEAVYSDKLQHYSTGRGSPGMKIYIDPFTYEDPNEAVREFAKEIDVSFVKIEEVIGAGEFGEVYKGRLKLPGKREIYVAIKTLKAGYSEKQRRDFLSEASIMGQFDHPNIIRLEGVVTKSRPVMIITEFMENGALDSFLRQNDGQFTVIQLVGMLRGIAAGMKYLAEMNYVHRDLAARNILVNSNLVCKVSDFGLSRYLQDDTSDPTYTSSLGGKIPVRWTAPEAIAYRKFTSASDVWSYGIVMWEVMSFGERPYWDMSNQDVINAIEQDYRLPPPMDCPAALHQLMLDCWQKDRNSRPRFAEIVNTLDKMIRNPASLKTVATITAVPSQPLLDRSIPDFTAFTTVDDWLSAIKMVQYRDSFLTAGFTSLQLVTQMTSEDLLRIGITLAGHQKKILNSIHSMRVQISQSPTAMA

FGFR3 = FGFR3 (UniProt P22607); assay: as above
MERTK = MERTK (UniProt Q12866); assay: as above
Sequence of MERTK (Q12866 whole entry, looked up): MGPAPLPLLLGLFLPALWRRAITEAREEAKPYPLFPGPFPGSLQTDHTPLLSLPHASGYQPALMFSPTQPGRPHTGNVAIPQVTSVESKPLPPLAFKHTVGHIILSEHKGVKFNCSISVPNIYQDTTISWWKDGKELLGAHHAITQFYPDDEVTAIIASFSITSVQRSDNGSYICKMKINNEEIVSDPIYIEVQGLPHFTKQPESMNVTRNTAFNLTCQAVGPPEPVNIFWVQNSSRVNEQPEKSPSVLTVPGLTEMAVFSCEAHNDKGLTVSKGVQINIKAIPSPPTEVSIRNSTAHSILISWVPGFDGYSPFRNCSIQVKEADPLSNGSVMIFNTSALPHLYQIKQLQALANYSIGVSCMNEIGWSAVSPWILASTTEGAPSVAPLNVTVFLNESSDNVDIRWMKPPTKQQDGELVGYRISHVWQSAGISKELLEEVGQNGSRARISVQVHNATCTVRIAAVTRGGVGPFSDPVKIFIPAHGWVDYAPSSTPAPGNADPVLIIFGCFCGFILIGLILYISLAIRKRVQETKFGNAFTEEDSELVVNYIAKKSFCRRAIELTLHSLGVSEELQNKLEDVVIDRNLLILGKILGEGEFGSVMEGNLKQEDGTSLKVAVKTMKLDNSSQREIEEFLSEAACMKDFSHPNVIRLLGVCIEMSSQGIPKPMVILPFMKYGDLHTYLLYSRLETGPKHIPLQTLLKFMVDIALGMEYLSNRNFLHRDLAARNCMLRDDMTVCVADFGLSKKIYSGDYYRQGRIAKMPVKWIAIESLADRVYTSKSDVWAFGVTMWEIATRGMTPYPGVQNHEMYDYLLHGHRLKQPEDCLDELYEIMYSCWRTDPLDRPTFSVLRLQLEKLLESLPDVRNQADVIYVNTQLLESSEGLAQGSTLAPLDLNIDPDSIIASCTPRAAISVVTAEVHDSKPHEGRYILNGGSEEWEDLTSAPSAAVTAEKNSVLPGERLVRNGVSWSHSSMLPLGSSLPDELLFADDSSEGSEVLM

c-Src = assay: as above
c-Abl (mouse) = assay: as above
Hck = Hck (UniProt P08631); assay: as above
Jak2 = Jak2 (UniProt O60674); assay: as above
Sequence of Jak2 (O60674 whole entry, looked up): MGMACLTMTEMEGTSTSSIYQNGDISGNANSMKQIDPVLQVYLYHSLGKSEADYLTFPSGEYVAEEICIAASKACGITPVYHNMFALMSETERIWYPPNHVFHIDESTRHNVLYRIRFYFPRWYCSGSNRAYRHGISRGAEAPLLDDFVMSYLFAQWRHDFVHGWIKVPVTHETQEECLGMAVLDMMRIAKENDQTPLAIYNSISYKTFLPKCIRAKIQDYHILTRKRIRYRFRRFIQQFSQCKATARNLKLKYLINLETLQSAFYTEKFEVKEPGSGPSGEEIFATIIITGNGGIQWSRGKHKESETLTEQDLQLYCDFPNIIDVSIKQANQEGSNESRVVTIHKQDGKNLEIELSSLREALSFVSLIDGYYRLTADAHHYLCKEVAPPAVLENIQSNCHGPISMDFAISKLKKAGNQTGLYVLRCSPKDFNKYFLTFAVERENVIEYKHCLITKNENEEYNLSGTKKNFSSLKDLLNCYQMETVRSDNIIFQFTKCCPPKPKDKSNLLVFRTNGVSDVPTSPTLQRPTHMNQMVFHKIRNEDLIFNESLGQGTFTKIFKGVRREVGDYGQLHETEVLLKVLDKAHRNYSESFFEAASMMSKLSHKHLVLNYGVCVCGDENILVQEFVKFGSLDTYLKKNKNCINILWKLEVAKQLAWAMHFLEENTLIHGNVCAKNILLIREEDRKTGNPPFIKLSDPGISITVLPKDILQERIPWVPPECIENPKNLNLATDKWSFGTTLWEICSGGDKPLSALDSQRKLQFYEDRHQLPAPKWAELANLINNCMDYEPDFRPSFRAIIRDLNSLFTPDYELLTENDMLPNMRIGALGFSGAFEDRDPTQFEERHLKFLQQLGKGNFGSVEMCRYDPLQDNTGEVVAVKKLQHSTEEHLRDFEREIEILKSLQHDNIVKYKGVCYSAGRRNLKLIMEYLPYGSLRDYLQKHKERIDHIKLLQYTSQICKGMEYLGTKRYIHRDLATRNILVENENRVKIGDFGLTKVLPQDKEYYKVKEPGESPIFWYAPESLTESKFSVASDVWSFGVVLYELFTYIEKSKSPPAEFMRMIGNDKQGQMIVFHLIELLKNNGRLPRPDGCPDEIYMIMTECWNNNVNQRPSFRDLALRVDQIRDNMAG

Fes = Fes (UniProt P07332); assay: as above
Sequence of Fes (P07332 whole entry, looked up): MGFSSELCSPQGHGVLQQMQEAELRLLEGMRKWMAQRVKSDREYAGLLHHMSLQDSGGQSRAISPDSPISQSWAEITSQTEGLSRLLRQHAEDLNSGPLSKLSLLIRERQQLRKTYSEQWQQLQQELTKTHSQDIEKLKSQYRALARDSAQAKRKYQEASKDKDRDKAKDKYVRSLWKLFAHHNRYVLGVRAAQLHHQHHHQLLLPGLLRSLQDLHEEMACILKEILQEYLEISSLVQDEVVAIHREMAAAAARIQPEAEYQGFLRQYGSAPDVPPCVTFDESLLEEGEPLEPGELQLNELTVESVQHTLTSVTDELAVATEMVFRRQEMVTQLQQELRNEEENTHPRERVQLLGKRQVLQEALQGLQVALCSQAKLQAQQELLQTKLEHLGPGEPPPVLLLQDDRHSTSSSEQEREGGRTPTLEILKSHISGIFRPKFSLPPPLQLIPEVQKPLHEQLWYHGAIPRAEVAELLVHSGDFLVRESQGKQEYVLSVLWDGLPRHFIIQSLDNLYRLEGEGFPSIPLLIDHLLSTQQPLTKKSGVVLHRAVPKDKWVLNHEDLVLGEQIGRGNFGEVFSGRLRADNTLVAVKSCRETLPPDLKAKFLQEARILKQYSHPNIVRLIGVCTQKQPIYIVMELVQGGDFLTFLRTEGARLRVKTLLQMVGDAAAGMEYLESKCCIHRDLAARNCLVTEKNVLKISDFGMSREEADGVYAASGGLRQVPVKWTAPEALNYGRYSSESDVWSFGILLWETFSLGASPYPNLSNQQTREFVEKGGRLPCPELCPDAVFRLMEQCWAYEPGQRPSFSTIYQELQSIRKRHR

Fyn = Fyn (UniProt P06241); assay: as above
Fer (mouse) = assay: as above
AncSZ = assay: as above
FGFR1 = FGFR1 (UniProt P11362); assay: as above
Sequence of FGFR1 (P11362 whole entry, looked up, the tested form may be a part): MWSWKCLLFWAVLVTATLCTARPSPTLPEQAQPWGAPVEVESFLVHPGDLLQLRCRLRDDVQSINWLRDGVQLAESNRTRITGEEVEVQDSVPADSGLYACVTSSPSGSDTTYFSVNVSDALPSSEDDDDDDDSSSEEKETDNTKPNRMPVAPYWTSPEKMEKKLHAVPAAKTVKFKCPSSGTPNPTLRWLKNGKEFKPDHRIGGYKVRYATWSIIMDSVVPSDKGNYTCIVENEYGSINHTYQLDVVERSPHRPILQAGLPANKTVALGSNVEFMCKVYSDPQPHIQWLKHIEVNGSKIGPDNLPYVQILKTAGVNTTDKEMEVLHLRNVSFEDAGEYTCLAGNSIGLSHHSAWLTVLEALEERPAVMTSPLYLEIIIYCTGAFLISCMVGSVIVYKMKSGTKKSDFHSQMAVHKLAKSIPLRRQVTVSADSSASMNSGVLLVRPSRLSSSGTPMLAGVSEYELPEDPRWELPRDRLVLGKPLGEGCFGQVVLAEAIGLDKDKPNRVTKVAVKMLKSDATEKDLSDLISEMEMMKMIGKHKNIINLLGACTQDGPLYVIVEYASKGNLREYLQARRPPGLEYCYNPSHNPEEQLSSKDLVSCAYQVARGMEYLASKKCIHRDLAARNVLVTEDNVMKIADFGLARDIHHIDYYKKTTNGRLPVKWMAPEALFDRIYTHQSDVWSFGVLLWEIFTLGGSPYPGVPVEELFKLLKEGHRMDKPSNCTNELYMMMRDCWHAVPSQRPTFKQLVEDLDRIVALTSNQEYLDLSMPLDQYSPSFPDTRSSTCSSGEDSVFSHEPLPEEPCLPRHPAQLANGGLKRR
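For SH2 binding enrichment of the phosphorylated peptide, bacterial display in this document: peptide library displayed on the E. coli surface as eCPX fusions, selected cells deep-sequenced, score is each peptide's frequency after selection divided by its frequency in the input.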
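For phosphorylation enrichment, bacterial display in this document: 11-residue human phosphosite peptides and single-mutation variants displayed on the E. coli surface, counted by deep sequencing, each peptide's frequency after selection divided by its frequency in the unselected input library; frequency after pTyr selection over input frequency; kinase dosed for 20-30% of maximal phosphorylation in three min.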

Sequence of Grb2 SH2 (P62993 whole entry, looked up): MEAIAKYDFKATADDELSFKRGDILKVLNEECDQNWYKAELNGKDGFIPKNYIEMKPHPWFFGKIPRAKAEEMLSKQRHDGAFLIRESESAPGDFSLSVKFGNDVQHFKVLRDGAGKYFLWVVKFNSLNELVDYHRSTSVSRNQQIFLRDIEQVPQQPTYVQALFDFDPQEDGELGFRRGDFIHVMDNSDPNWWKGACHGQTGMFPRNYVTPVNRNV

| Sequence | SH2 binding enrichment (Grb2 SH2) | SH2 binding enrichment (c-Src SH2) | SH2 binding enrichment (SHP2-C SH2) | phosphorylation enrichment (EPHB2) | phosphorylation enrichment (EPHB1) | phosphorylation enrichment (FGFR3) | phosphorylation enrichment (MERTK) | phosphorylation enrichment (c-Src) | phosphorylation enrichment (c-Abl (mouse)) | phosphorylation enrichment (Hck) | phosphorylation enrichment (Jak2) | phosphorylation enrichment (Fes) | phosphorylation enrichment (Fyn) | phosphorylation enrichment (Fer (mouse)) | phosphorylation enrichment (AncSZ) | phosphorylation enrichment (FGFR1) |
| --- | --- | --- | --- | --- | --- | --- | --- | --- | --- | --- | --- | --- | --- | --- | --- | --- |
| EQLQSYQVEII [KRT33A_Y268_A270V] | 0.832 | 0.457 | 0.629 | 0.529 | 0.67 | 0.762 | 0.513 | 0.575 | 0.858 | 0.53 | 0.945 | 1.21 | 0.579 | 0.597 | 1.14 | 0.531 |
| EQSGSYIWVPA [DLG1_Y895] | 0.925 | 0.682 | 0.604 | 0.615 | 0.892 | 5.15 | 3.33 | 0.511 | 0.807 | 0.487 | 1.19 | 1.16 | 0.471 | 0.514 | 1.86 | 8.59 |
| EQWRAYLEGTC [HLA-C_Y183_L180W] | 0.749 | 0.466 | 0.718 | 0.588 | 0.648 | 0.951 | 0.437 | 0.398 | 0.845 | 0.507 | 1.17 | 1.23 | 0.527 | 0.636 | 1.2 | 0.65 |
| ERCAQYKKDGA [ALDOA_Y138] | 1.06 | 0.635 | 0.623 | 0.487 | 0.409 | 0.484 | 0.368 | 0.391 | 0.496 | 0.396 | 0.622 | 0.574 | 0.394 | 0.341 | 0.612 | 0.438 |
| ERKQTYGSCRK [LACTB_Y473] | 1.09 | 0.971 | 1.27 | 0.406 | 0.343 | 0.381 | 0.359 | 0.334 | 0.5 | 0.403 | 0.392 | 0.636 | 0.339 | 0.319 | 0.518 | 0.365 |
| ESMLRYEVYGG [STOX1_Y607] | 0.819 | 0.929 | 0.554 | 0.685 | 0.758 | 0.702 | 0.506 | 0.905 | 0.744 | 0.712 | 1.3 | 1.42 | 0.666 | 0.523 | 1.29 | 0.528 |
| ESSKAYERDLS [TTC37_Y1074_A1077D] | 0.681 | 0.471 | 0.715 | 0.488 | 0.394 | 0.524 | 0.432 | 0.402 | 0.533 | 0.456 | 0.499 | 0.771 | 0.419 | 0.519 | 0.735 | 0.384 |
| ETGEPCRLSPE [EIF4G1_Y311_Y311C] | 0.866 | 0.664 | 0.618 | 0.674 | 0.62 | 0.846 | 0.536 | 0.553 | 1.01 | 0.689 | 1.15 | 1.31 | 0.531 | 0.55 | 1.13 | 0.612 |
| EVTLTYATGIK [NFKB1_Y485_T489I] | 0.916 | 0.413 | 0.646 | 0.424 | 0.475 | 0.634 | 0.404 | 0.508 | 0.66 | 0.555 | 1.06 | 1.15 | 0.477 | 0.473 | 0.896 | 0.421 |
